In patent US20230086069A1 (SYSTIMMUNE, published 2023):
Numbering of substitutions follows the chain as printed.

B1: SI-63R1 (humanized anti-CD19 H1 scFv-His-tagged protein) (scFv)
scFv: ENVLTQSPASLSASPGERVTITCSASSSVSYMHWYQQKPGQAPKLWIYDTSKLASGVPSRFSGSGSGNDHTLTISSMEPEDFATYYCFQGSVYPFTFGQGTKLEIKGGGGSGGGGSGGGGSGGGGSQVTLKESGPGLVQPGQTLRLTCAFSGFSLSTSGMGVGWIRQPPGKGLEWLAHIWWDDDKRYNPALKSRLTISKDTSKNQVYLQMNSLDAEDTAVYYCARMELWSYYFDYWGQGTLVTVSSGSHHHHHH
notes: also called SI-63R1(H1)
B2: SI-63SF4 (H3 scFv-monoFc fusion protein) (Fc fusion)
chain: ENVLTQSPASLSASPGERVTITCSASSSVSYMHWYQQKPGQAPKLWIYDTSKLASGVPSRFSGSGSGNDHTLTISSMEPEDFATYYCFQGSVYPFTFGQGTKLTVLGGGGSGGGGSGGGGSGGGGSQVTLKESGPGLVQPGQTLRLTCAFSGFSLSTSGMGVGWIRQPPGKGLEWLAHIWWDDDKRYNPALKSRLTISKDTSKNQVYLQMNSLDAEDTAVYYCARMELWSYYFDYWGQGTLVTVSSGGSSGSGSGSTGLVPRGSTSSSGTGTSAGTPVAGPSVFLFPPKPKDTLMISRTPEVTCVVVDVSHEDPEVKFNWYVDGVEVHNAKTKPREEQYASTYRVVSVLTVLHQDWLNGKEYKCKVSNKALPAPIEKTISKAKGQPREPQVYTLPPSRDELTKNQVSLRCHVKGFYPSDIAVEWESNGQPENNYKTTKPVLDSDGSFFLYSTLTVDKSRWQQGNVFSCSVLHEALHNHYTQKSLSLSPGKGSGLNDIFEAQKIEWHE
notes: The entry is the whole scFv-monoFc chain; also called Humanized version 3 ScFv monoFc
B3: SI-63SF1 (H1 scFv-monoFc fusion protein) (Fc fusion)
chain: B2 chain with T104E, V105I, L106K
notes: The entry is the whole scFv-monoFc chain; also called Humanized version 1 ScFv monoFc
B4: SI-63SF5 (H4 scFv-monoFc fusion protein) (Fc fusion)
chain: B2 chain with L103V
notes: The entry is the whole scFv-monoFc chain; also called Humanized version 4 ScFv monoFc
B5: SI-63SF2 (H2 scFv-monoFc fusion protein) (Fc fusion)
chain: B2 chain with L103I, V105I
notes: The entry is the whole scFv-monoFc chain; also called Humanized version 2 ScFv monoFc
B6: SI-63SF6 (H5 scFv-monoFc fusion protein) (Fc fusion)
chain: EIVMTQSPSTLSASVGDRVIITCSASSSVSYMHWYQQKPGKAPKLLIYDTSKLASGVPSRFSGSGSGAEFTLTISSLQPDDFATYYCFQGSVYPFTFGQGTKLTVLGGGGSGGGGSGGGGSGGGGSEVQLVESGGGLVQPGGSLRLSCVFSGFSLSTSGMGVGWVRQAPGKGLEWVGHIWWDDDKRYNPALKSRFTISRDTSKNTVYLQMNSLRAEDTAVYYCARMELWSYYFDYWGQGTLVTVSSGSSGSGSGSTGLVPRGSTSSSGTGTSAGTPVAGPSVFLFPPKPKDTLMISRTPEVTCVVVDVSHEDPEVKFNWYVDGVEVHNAKTKPREEQYASTYRVVSVLTVLHQDWLNGKEYKCKVSNKALPAPIEKTISKAKGQPREPQVYTLPPSRDELTKNQVSLRCHVKGFYPSDIAVEWESNGQPENNYKTTKPVLDSDGSFFLYSTLTVDKSRWQQGNVFSCSVLHEALHNHYTQKSLSLSPGKGSGLNDIFEAQKIEWHE
notes: The entry is the whole scFv-monoFc chain; also called Humanized version 5 ScFv monoFc
B7: SI-63SF7 (H6 scFv-monoFc fusion protein) (Fc fusion)
chain: B6 chain with V149S
notes: The entry is the whole scFv-monoFc chain; also called Humanized version 6 ScFv mono Fc
B8: SI-63C1 (recombinant chimeric mAb with BU12 mouse parental anti-CD19 variable sequence) (antibody, V domains shown)
VH: QVTLKESGPGILQPSQTLSLTCSFSGFSLSTSGMGVGWIRQPSGKGLEWLAHIWWDDDKRYNPALKSRLTISKDTSSNQVFLKIASVDTADTAAYYCARMELWSYYFDYWGQGTTLTVSS
VL: ENVLTQSPAIMSASPGEKVTMTCSASSSVSYMHWYQQKSSTSPKLWIYDTSKLASGVPGRFSGSGSGNSHFLTISSMEAEDVATYYCFQGSVYPFTFGSGTKLEIKR
notes: Mouse BU12 variable regions on human kappa and human IgG CH1-Fc; also called BU12-chimeric; SI-63C1-AF647
B9: SI-63C2 (recombinant mAb with H1 humanized anti-CD19 variable sequence) (antibody, V domains shown)
VH: QVTLKESGPGLVQPGQTLRLTCAFSGFSLSTSGMGVGWIRQPPGKGLEWLAHIWWDDDKRYNPALKSRLTISKDTSKNQVYLQMNSLDAEDTAVYYCARMELWSYYFDYWGQGTLVTVSS
VL: ENVLTQSPASLSASPGERVTITCSASSSVSYMHWYQQKPGQAPKLWIYDTSKLASGVPSRFSGSGSGNDHTLTISSMEPEDFATYYCFQGSVYPFTFGQGTKLEIKR
notes: H1 VH/VL on human kappa and human IgG CH1-Fc; also called SI-huCD19; humanized BU12, H1
B10: SI-34C1 (recombinant mAb with 21D4 human anti-CD19 variable sequence) (antibody, human IgG1, kappa, V domains shown)
VH: EVQLVQSGAEVKKPGESLKISCKGSGYSFSSSWIGWVRQAPGKGLEWMGIIYPDDSDTRYSPSFQGQVTISADKSIRTAYLQWSSLKASDTAMYYCARHVTMIWGVIIDFWGQGTLVTVSS
VL: AIQLTQSPSSLSASVGDRVTITCRASQGISSALAWYQQKPGKAPKLLIYDASSLESGVPSRFSGSGSGTDFTLTISSLQPEDFATYYCQQFNSYPFTFGPGTKVDIKR
notes: also called human anti-CD19 antibody (21D4)

Key:
[1] = target: T1, His-tagged human CD19 (human, UniProt P15391 20-291, limits assumed); assay: BLI (Octet), scFv-His coupled covalently to AR2G sensor, His-tagged human CD19 as analyte
T1 construct: not shown: His tag
T1 sequence (looked up): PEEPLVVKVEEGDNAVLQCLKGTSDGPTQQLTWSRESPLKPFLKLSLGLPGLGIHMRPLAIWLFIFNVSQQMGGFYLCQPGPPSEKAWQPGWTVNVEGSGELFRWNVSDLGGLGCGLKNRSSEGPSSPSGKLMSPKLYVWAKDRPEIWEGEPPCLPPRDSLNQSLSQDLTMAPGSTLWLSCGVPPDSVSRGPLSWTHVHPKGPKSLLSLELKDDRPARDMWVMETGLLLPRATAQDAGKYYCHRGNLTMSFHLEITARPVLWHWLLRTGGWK
Protocol: To assess the binding affinity of SI-63R1, Octet binding assay was used. The SI-63R1 protein was loaded via covalent coupling onto AR2G sensors at 10 ug/ml and bound to a serial dilution of His-tagged human CD19 (1:2.5 dilutions from the highest concentration of 200 nM).

[2] = target: T1, His-tagged human CD19; assay: BLI (Octet), scFv-monoFc on AHC sensor, His-tagged human CD19 as analyte, global 1:1 fit
Source text: To further screen and compare all humanized peptides, the DNA sequences encoding humanized CD19 binding variants (H1, H2, H3, H4, H5 and H6) were configured to a scFv-monoFc format and cloned (Dimitrov et al. 2012.) (SEQ ID NO. 55,57,59,61,63,65). […] They were given names as SI-63SF1(H1), SI-63SF2(H2), SI-63SF4(H3), SI-63SF5(H4), SI-63SF6(H5), and SI-63SF7(H6). Following the expression and purification processes, all six proteins were characterized for their physical characters, including yields (titer), purity (% HMW and aSEC), binding affinity (KD, Kon, and Kdis) to human CD19, and thermal stability. For Octet assay, the scFv-monoFc fusion proteins were loaded via AHC sensors at 10 ug/ml and bound to a serial dilution of His-tagged human CD19 (1:2.5 dilutions starting from the highest concentration of 200 nM), and the resulting global fit to a 1:1 binding model. For the DLS analysis, the temperature was ramped from 25° C. to 75° C. at 0.5° C./min while the radius of the scFv-monoFc fusion proteins (at 1 mg/ml) was monitored by a Wyatt DynaPro Plate Reader III.

[3] = target: T2, human CD19 on cells (CD20+ B cells of human PBMC; Raji lymphoma cells) (human, UniProt P15391 20-556); assay: flow cytometry, dose response on human CD20+ lymphocytes
T2 construct: whole, on cells; also called Human CD20+
T2 sequence (looked up): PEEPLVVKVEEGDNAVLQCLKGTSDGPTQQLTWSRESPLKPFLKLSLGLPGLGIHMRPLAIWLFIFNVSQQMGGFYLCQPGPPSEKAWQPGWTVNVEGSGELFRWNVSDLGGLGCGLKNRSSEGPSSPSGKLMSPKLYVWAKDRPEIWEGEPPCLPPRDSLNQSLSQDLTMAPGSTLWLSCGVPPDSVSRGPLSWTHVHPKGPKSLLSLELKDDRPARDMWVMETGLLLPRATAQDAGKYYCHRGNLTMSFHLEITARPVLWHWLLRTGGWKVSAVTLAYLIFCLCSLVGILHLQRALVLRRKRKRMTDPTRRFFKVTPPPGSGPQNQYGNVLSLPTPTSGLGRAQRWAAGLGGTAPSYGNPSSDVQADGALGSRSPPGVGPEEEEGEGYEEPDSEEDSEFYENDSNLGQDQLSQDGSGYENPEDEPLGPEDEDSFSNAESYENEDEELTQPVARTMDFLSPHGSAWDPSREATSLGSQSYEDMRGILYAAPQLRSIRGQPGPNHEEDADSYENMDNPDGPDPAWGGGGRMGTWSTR
Protocol: (§1) To determine if the humanization alters the cross reactivity, the flow cytometry was carried out. The SI-63C2 antibody was used to bind the peripheral blood mononuclear cells derived from human, cynomolgus, and rhesus, respectively. Lymphocytes were gated based on forward and side scatter, followed by single cells based on the ratio of forward scatter signal height and area. Viable CD20+ B-cell and CD20− lymphocytes are gated based on the exclusion of membrane permeable amine reactive dye and the binding level of CD20 antibody (clone 2H7, Biolegend). Binding of the labelled antibody was determined as the geometric mean fluorescence intensity (gMFI) of the cell population for the fluorescent conjugate's emission channel. As shown in the histogram analysis in FIG. 4, the SI-63C2 antibody binds to CD20+ B cells from human, cynomolgus, and rhesus (4A) but not to their CD20− lymphocytes (4B).

[4] = target: T3, rhesus CD19 on cells (CD20+ B cells of rhesus PBMC) (rhesus, UniProt F7F486 20-557); assay: flow cytometry, dose response on rhesus CD20+ lymphocytes
T3 construct: also called Rhesus CD20+
T3 sequence: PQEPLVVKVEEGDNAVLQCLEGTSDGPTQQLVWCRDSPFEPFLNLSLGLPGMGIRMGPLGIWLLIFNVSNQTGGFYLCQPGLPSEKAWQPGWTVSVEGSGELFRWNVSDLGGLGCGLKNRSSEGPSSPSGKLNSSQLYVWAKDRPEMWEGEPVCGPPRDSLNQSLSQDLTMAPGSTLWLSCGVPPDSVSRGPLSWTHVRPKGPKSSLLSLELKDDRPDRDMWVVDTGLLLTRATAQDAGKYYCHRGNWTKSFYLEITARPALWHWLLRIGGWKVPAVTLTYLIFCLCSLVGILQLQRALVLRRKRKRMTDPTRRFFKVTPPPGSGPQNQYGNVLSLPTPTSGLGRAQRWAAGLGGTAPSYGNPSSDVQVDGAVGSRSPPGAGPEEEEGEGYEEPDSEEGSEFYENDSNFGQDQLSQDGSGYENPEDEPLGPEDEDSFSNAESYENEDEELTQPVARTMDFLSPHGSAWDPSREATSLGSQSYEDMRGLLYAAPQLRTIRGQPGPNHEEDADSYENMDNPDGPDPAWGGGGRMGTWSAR
Protocol: as §1

[5] = target: T4, cynomolgus CD19 on cells (CD20+ B cells of cynomolgus PBMC) (cynomolgus); assay: flow cytometry, dose response on cynomolgus CD20+ lymphocytes
T4 construct: whole, on cells; also called Cynomolgus CD20+
Protocol: as §1

[6] = target: T5, human CD19 protein (R&D Biosystems Cat #9269-CD-050) (human, UniProt P15391 20-291); assay: BLI (Octet), antibody on anti-human Fc biosensor, human CD19 as analyte
T5 sequence (looked up): T1 sequence (looked up)
Protocol: (§2) The purified SI-63C1, SI-63C2, and SI-34C1 antibodies were tested for their binding affinity using biolayer interferometry (ForteBio OctetRED 384). The antibodies were bound to anti-human Fc biosensors, and human CD19 protein (R&D Biosystems Cat #9269-CD-050) was used as the analyte in a 4-point series of 2-fold dilutions with the highest concentration starting at 200 nM.

[7] = target: T2, human CD19 on cells (CD20+ B cells of …); assay: flow cytometry, dose response on human CD20+ lymphocytes; human CD20+ lymphocytes
Protocol: as §1

[8] = target: T5, human CD19 protein (R&D Biosystems Cat …); assay: BLI (Octet), antibody on anti-human Fc biosensors, CD19 protein as analyte; human CD19
Protocol: as §2

[9] = target: T5, human CD19 protein (R&D Biosystems Cat …); assay: BLI (Octet); human CD19
Protocol: as §2

Binder | Kd [2] [nM] | koff [2] [s⁻¹] | Kd [6] [nM] | koff [6] [s⁻¹] | kon [6] [M⁻¹ s⁻¹] | also measured
B1 |  |  |  |  |  | Kd [1]: 1.83 nM; koff [1]: 9.15e-05 s⁻¹
B2 | 4.18 | 0.00191 |  |  |  | 
B3 | 6.89 | 0.000184 |  |  |  | 
B4 | 5.02 | 0.00187 |  |  |  | 
B5 | 4.22 | 0.00181 |  |  |  | 
B6 | 5.68 | 0.000339 |  |  |  | kon [2]: 59700 M⁻¹ s⁻¹
B7 | 5.37 | 0.000377 |  |  |  | kon [2]: 70200 M⁻¹ s⁻¹
B8 |  |  | 3.06 | 0.000209 | 68100 | EC50 [3]: 0.231 µg/mL; EC50 [4]: 0.991 µg/mL; EC50 [5]: 0.909 µg/mL
B9 |  |  | 3.77 | 0.000229 | 60800 | EC50 [4]: 0.666 µg/mL; EC50 [5]: 2.9 µg/mL; EC50 [7]: 0.0397 µg/mL; Kd [8]: 3.8 nM
B10 |  |  | 1.56 | 0.000101 | 64400 | Kd [9]: 2.1 nM
